Assay results published in the Human Domainome abundance scans (Beltran et al. 2025).
± gives the uncertainty stated by the source.

B1: 3'-5' exoribonuclease 1, residues 65 to 114; numbered along this chain, Q8IV48 (parent)
chain: VYKEIAITNGCINRMSKEELRAKLSEFKLETRGVKDVLKKRLKNYYKKQK

Variants of: B1
Test: abundance fitness (aPCA) (normalised: wild type 0, dead -1); higher = more abundant; growth selection in yeast, the domain comes from the species named
Details: Homo sapiens

**Q.** With VYKEIAITNGCINRMGKEELRAKLSEFKLETRGVKDVLKKRLKNYYKKQK [S16G] as the variant, how does the abundance fitness read?
**A.** -0.425 ± 0.078

**Q.** With VYKEIAITNGCINRMKKEELRAKLSEFKLETRGVKDVLKKRLKNYYKKQK [S16K] as the variant, how does the abundance fitness read?
**A.** -0.026 ± 0.12

**Q.** With VYKEIAITNGCINRMDKEELRAKLSEFKLETRGVKDVLKKRLKNYYKKQK [S16D] as the variant, how does the abundance fitness read?
**A.** -0.336 ± 0.093

**Q.** Which abundance fitness does the source give for VYKEIAITNGCINRMIKEELRAKLSEFKLETRGVKDVLKKRLKNYYKKQK [S16I] here?
**A.** -0.828 ± 0.078

**Q.** With VYKEIAITNGCINRMMKEELRAKLSEFKLETRGVKDVLKKRLKNYYKKQK [S16M] as the variant, how does the abundance fitness read?
**A.** -1.08 ± 0.26

**Q.** For VYKEIAITNGCINRMLKEELRAKLSEFKLETRGVKDVLKKRLKNYYKKQK [S16L], which abundance fitness is on record?
**A.** -0.838 ± 0.069

**Q.** For VYKEIAITNGCINRMAKEELRAKLSEFKLETRGVKDVLKKRLKNYYKKQK [S16A], which abundance fitness is on record?
**A.** -0.445 ± 0.082

**Q.** For VYKEIAITNGCINRMEKEELRAKLSEFKLETRGVKDVLKKRLKNYYKKQK [S16E], which abundance fitness is on record?
**A.** -0.746 ± 0.28

**Q.** Which abundance fitness does the source give for VYKEIAITNGCINRMFKEELRAKLSEFKLETRGVKDVLKKRLKNYYKKQK [S16F] here?
**A.** -0.701 ± 0.043

**Q.** With VYKEIAITNGCINDMSKEELRAKLSEFKLETRGVKDVLKKRLKNYYKKQK [R14D] as the variant, how does the abundance fitness read?
**A.** -0.308 ± 0.052

**Q.** Which abundance fitness does the source give for VYKEIAITNGCINVMSKEELRAKLSEFKLETRGVKDVLKKRLKNYYKKQK [R14V] here?
**A.** -0.65 ± 0.036

**Q.** With VYKEIAITNGCINQMSKEELRAKLSEFKLETRGVKDVLKKRLKNYYKKQK [R14Q] as the variant, how does the abundance fitness read?
**A.** -0.072 ± 0.048

**Q.** With VYKEIAITNGCINTMSKEELRAKLSEFKLETRGVKDVLKKRLKNYYKKQK [R14T] as the variant, how does the abundance fitness read?
**A.** -0.226 ± 0.045

**Q.** For VYKEIAITNGCINCMSKEELRAKLSEFKLETRGVKDVLKKRLKNYYKKQK [R14C], which abundance fitness is on record?
**A.** -0.315 ± 0.041

**Q.** With VYKEIAITNGCINFMSKEELRAKLSEFKLETRGVKDVLKKRLKNYYKKQK [R14F] as the variant, how does the abundance fitness read?
**A.** -0.881 ± 0.065

**Q.** For VYKEIAITNGCINMMSKEELRAKLSEFKLETRGVKDVLKKRLKNYYKKQK [R14M], which abundance fitness is on record?
**A.** -0.298 ± 0.05

**Q.** For VYKEIAITNGCINWMSKEELRAKLSEFKLETRGVKDVLKKRLKNYYKKQK [R14W], which abundance fitness is on record?
**A.** -0.941 ± 0.053

**Q.** Which abundance fitness does the source give for VYKEIAITNGCINGMSKEELRAKLSEFKLETRGVKDVLKKRLKNYYKKQK [R14G] here?
**A.** -0.15 ± 0.035

**Q.** For VYKEIAITNGCINAMSKEELRAKLSEFKLETRGVKDVLKKRLKNYYKKQK [R14A], which abundance fitness is on record?
**A.** -0.115 ± 0.035

**Q.** With VYKEIAITNGCINSMSKEELRAKLSEFKLETRGVKDVLKKRLKNYYKKQK [R14S] as the variant, how does the abundance fitness read?
**A.** -0.129 ± 0.036

**Q.** For VYKEIAITNGCINNMSKEELRAKLSEFKLETRGVKDVLKKRLKNYYKKQK [R14N], which abundance fitness is on record?
**A.** -0.151 ± 0.055

**Q.** For VYKEIAITNGCINLMSKEELRAKLSEFKLETRGVKDVLKKRLKNYYKKQK [R14L], which abundance fitness is on record?
**A.** -0.43 ± 0.037

**Q.** Which abundance fitness does the source give for VYKEIAITNGCINYMSKEELRAKLSEFKLETRGVKDVLKKRLKNYYKKQK [R14Y] here?
**A.** -0.826 ± 0.059

**Q.** With VYKEIAITNGCINHMSKEELRAKLSEFKLETRGVKDVLKKRLKNYYKKQK [R14H] as the variant, how does the abundance fitness read?
**A.** -0.166 ± 0.057

**Q.** Which abundance fitness does the source give for VYKEIAITNGCINEMSKEELRAKLSEFKLETRGVKDVLKKRLKNYYKKQK [R14E] here?
**A.** -0.359 ± 0.048

**Q.** With VYKEIAITNGCINPMSKEELRAKLSEFKLETRGVKDVLKKRLKNYYKKQK [R14P] as the variant, how does the abundance fitness read?
**A.** -0.908 ± 0.051

**Q.** For VYKEIAITNGCINIMSKEELRAKLSEFKLETRGVKDVLKKRLKNYYKKQK [R14I], which abundance fitness is on record?
**A.** -0.724 ± 0.07

**Q.** With VYKEIAITNGCIQRMSKEELRAKLSEFKLETRGVKDVLKKRLKNYYKKQK [N13Q] as the variant, how does the abundance fitness read?
**A.** -0.629 ± 0.051

**Q.** Which abundance fitness does the source give for VYKEIAITNGCIYRMSKEELRAKLSEFKLETRGVKDVLKKRLKNYYKKQK [N13Y] here?
**A.** -0.437 ± 0.06

**Q.** For VYKEIAITNGCISRMSKEELRAKLSEFKLETRGVKDVLKKRLKNYYKKQK [N13S], which abundance fitness is on record?
**A.** -0.272 ± 0.038

**Q.** For VYKEIAITNGCIPRMSKEELRAKLSEFKLETRGVKDVLKKRLKNYYKKQK [N13P], which abundance fitness is on record?
**A.** -0.949 ± 0.065

**Q.** For VYKEIAITNGCIDRMSKEELRAKLSEFKLETRGVKDVLKKRLKNYYKKQK [N13D], which abundance fitness is on record?
**A.** -0.259 ± 0.055

**Q.** With VYKEIAITNGCIRRMSKEELRAKLSEFKLETRGVKDVLKKRLKNYYKKQK [N13R] as the variant, how does the abundance fitness read?
**A.** -0.415 ± 0.035

**Q.** With VYKEIAITNGCIVRMSKEELRAKLSEFKLETRGVKDVLKKRLKNYYKKQK [N13V] as the variant, how does the abundance fitness read?
**A.** -0.764 ± 0.041

**Q.** Which abundance fitness does the source give for VYKEIAITNGCIARMSKEELRAKLSEFKLETRGVKDVLKKRLKNYYKKQK [N13A] here?
**A.** -0.487 ± 0.037

**Q.** For VYKEIAITNGCIWRMSKEELRAKLSEFKLETRGVKDVLKKRLKNYYKKQK [N13W], which abundance fitness is on record?
**A.** -0.938 ± 0.049

**Q.** For VYKEIAITNGCIFRMSKEELRAKLSEFKLETRGVKDVLKKRLKNYYKKQK [N13F], which abundance fitness is on record?
**A.** -0.961 ± 0.077

**Q.** Which abundance fitness does the source give for VYKEIAITNGCIKRMSKEELRAKLSEFKLETRGVKDVLKKRLKNYYKKQK [N13K] here?
**A.** -0.376 ± 0.048

**Q.** Which abundance fitness does the source give for VYKEIAITNGCIERMSKEELRAKLSEFKLETRGVKDVLKKRLKNYYKKQK [N13E] here?
**A.** -0.446 ± 0.05

**Q.** For VYKEIAITNGCITRMSKEELRAKLSEFKLETRGVKDVLKKRLKNYYKKQK [N13T], which abundance fitness is on record?
**A.** -0.684 ± 0.051

**Q.** With VYKEIAITNGCILRMSKEELRAKLSEFKLETRGVKDVLKKRLKNYYKKQK [N13L] as the variant, how does the abundance fitness read?
**A.** -0.914 ± 0.043

**Q.** With VYKEIAITNGCIIRMSKEELRAKLSEFKLETRGVKDVLKKRLKNYYKKQK [N13I] as the variant, how does the abundance fitness read?
**A.** -0.65 ± 0.078

**Q.** For VYKEIAITNGCIMRMSKEELRAKLSEFKLETRGVKDVLKKRLKNYYKKQK [N13M], which abundance fitness is on record?
**A.** -0.801 ± 0.057

**Q.** With VYKEIAITNGCINRYSKEELRAKLSEFKLETRGVKDVLKKRLKNYYKKQK [M15Y] as the variant, how does the abundance fitness read?
**A.** -0.645 ± 0.05

**Q.** For VYKEIAITNGCINRGSKEELRAKLSEFKLETRGVKDVLKKRLKNYYKKQK [M15G], which abundance fitness is on record?
**A.** -0.975 ± 0.12

**Q.** For VYKEIAITNGCINRHSKEELRAKLSEFKLETRGVKDVLKKRLKNYYKKQK [M15H], which abundance fitness is on record?
**A.** -0.873 ± 0.062

**Q.** For VYKEIAITNGCINRISKEELRAKLSEFKLETRGVKDVLKKRLKNYYKKQK [M15I], which abundance fitness is on record?
**A.** -0.635 ± 0.048

**Q.** With VYKEIAITNGCINRWSKEELRAKLSEFKLETRGVKDVLKKRLKNYYKKQK [M15W] as the variant, how does the abundance fitness read?
**A.** -0.83 ± 0.12

**Q.** Which abundance fitness does the source give for VYKEIAITNGCINRDSKEELRAKLSEFKLETRGVKDVLKKRLKNYYKKQK [M15D] here?
**A.** -0.981 ± 0.098

**Q.** With VYKEIAITNGCINRQSKEELRAKLSEFKLETRGVKDVLKKRLKNYYKKQK [M15Q] as the variant, how does the abundance fitness read?
**A.** -0.885 ± 0.12

**Q.** With VYKEIAITNGCINRLSKEELRAKLSEFKLETRGVKDVLKKRLKNYYKKQK [M15L] as the variant, how does the abundance fitness read?
**A.** -0.317 ± 0.046

**Q.** Which abundance fitness does the source give for VYKEIAITNGCINRRSKEELRAKLSEFKLETRGVKDVLKKRLKNYYKKQK [M15R] here?
**A.** -0.718 ± 0.081
